Patent US7279304B2, “Methods for preparation of macrocyclic molecules and macrocyclic molecules prepared thereby” (President and Fellows of Harvard College, priority 2000, dated 2007)

Columns and labels:
Experiment in all cases: purified protein, by the assay type
Format in all cases: biochemical
[1] = substrate: CC(=O)NCCSC(=O)[C@H](CC(C)C)NC(=O)[C@H](CCCN)NC(=O)[C@@H](NC(=O)[C@H](Cc1ccc(O)cc1)NC(=O)[C@H](CCC(N)=O)NC(=O)[C@H](CC(N)=O)NC(=O)[C@@H](Cc1ccccc1)NC(=O)[C@H](Cc1ccccc1)NC(=O)[C@H](C)NC(=O)[C@H](N)Cc1ccccc1)C(C)C; details: other: Table 1; macrocyclization of peptide-SNAC substrate; 25 mM MOPS, pH 7.0
Experimental: (§1) Macrocyclization reactions were carried out in 25 mM MOPS, pH 7.0 in a total volume of 400 μL. Reactions were initiated by addition of TycC TE and quenched at various time points by the addition of 25 μL 1.7% TFA/water, flash frozen in liquid nitrogen and stored at −80° C. (for Ex. 13, reactions were quenched by the addition of sodium phosphate, pH 5.3, to 100 mM). The reactions were then thawed, 85 μL acetonitrile added, and analyzed by analytical HPLC with monitoring at 220 nm (20% to 80% acetonitrile in 0.1% TFA/water, or in 25 mM potassium phosphate, pH 5.3 for Ex. 13, over 35 minutes, Vydac protein and peptide C18 column). Initial rates were calculated using 1 minute time points. Peptide-SNAC and reaction product concentrations were determined for all Tyr-containing peptides based on the estimated extinction coefficient ε (280 nm)=1,280 M^−1 cm^−1, which agrees with the experimentally determined ε (280 nm) of Ex. 1. For peptide-SNACs not containing Tyr, ε (220 nm) was determined experimentally, and concentrations of corresponding cyclic products determined by assuming equal ε (220 nm) values for the peptide-SNAC and cyclic product.

[2] = substrate: CC(=O)NCCSC(=O)[C@H](CC(C)C)NC(=O)[C@H](CCCN)NC(=O)[C@@H](NC(=O)[C@H](Cc1ccc(O)cc1)NC(=O)[C@H](CCC(N)=O)NC(=O)[C@H](C)NC(=O)[C@@H](Cc1ccccc1)NC(=O)[C@H](Cc1ccccc1)NC(=O)[C@@H]1CCCN1C(=O)[C@H](N)Cc1ccccc1)C(C)C; details: other: Table 1; macrocyclization of peptide-SNAC substrate; 25 mM MOPS, pH 7.0
Experimental: as §1

[3] = substrate: CC(=O)NCCSC(=O)[C@H](CC(C)C)NC(=O)[C@H](CCCN)NC(=O)[C@@H](Cc1ccccc1)NC(=O)[C@H](CC(C)C)NC(=O)[C@H](CCCN)NC(=O)[C@H](N)Cc1ccccc1; details: other: Table 2; cyclization of peptide-SNAC substrates of 6-14 amino acids
Experimental: as §1

[4] = substrate: CC(=O)NCCSC(=O)[C@H](CC(C)C)NC(=O)[C@H](CCCN)NC(=O)[C@@H](NC(=O)[C@H](Cc1ccc(O)cc1)NC(=O)[C@H](CCC(N)=O)NC(=O)[C@H](CC(N)=O)NC(=O)[C@@H](Cc1ccccc1)NC(=O)[C@H](C)NC(=O)[C@@H]1CCCN1C(=O)[C@H](N)Cc1ccccc1)C(C)C; details: other: Table 1; macrocyclization of peptide-SNAC substrate; 25 mM MOPS, pH 7.0
Experimental: as §1

[5] = substrate: CC(=O)NCCSC(=O)[C@H](CC(C)C)NC(=O)[C@H](CCCN)NC(=O)[C@@H](NC(=O)[C@H](CC(C)C)NC(=O)[C@@H](NC(=O)[C@@H]1CCCN1C(=O)[C@@H](Cc1ccccc1)NC(=O)[C@H](CC(C)C)NC(=O)[C@H](CCCN)NC(=O)[C@@H](NC(=O)[C@H](CC(C)C)NC(=O)[C@@H](NC(=O)[C@@H]1CCCN1C(=O)[C@H](N)Cc1ccccc1)C(C)C)C(C)C)C(C)C)C(C)C; details: other: Table 2; cyclization of peptide-SNAC substrates of 6-14 amino acids
Experimental: as §1

B1: TycC TE (excised TE domain protein from the tyrocidine NRPS) (Brevibacillus parabrevis) (protein)
chain: FESRYGTAILLNQETARNVFCFTPIGAQSVYYQKLAAEIQGVSLYSFDFIQDDNRMEQYIAAITAIDPSGPYTLMGYSSGGNLAFEVAKELEERGYGVTDIILFDSYWKDKAIERTVAETENDIAQLFAEIGENTEMFNMTQEDFQLYAANEFVKQSFVRKTVSYVMFHNNLVNTGMTTAAIHLIQSELEADEEAPVAAKWNESAWANATQRLLTYSGHGIHSRMLAGDYASQNASILQNILQELFILK
notes: excised TE domain protein from the tyrocidine NRPS (TycC TE); made in house
Work on B1 yielded a Km [1] of 3 µM, a Km [2] of 6 µM and a Km [3] of 4 µM. The kcat [3] was 0.5 s⁻¹, the Km [4] was 6 µM and the Km [5] was 5 µM. The kcat [5] was 0.1 s⁻¹.
